Test results: the RNAGym collection of RNA variant scans (doi:10.7554/elife.80360)

B1: HDV Ribozyme (parent)
chain: GGCCGGCAUGGUCCCAGCCUCCUCGCUGGCGCCGGCUGGGCAACAUUCCGAGGGGACCGUCCCCUCGGUAAUGGCGAAUGGGACCCA

Variants of: B1
Test: self-cleavage, relative activity (ratio to wild type); higher = more cleavage; co-transcriptional

Question: Which self-cleavage does the source give for GCCCGGCAUGGUCCCAGCCUCCUCGCUGGCGCCGGCUGGGCAACAUUCCGAGGGGACCGUCCCCUCGGUAAUGGCGAAUGGGGCCCA [G2C A83G] here?
Answer: The self-cleavage was 0.132.

Question: With GGCCGGCAUGGUCCCAGCCUCCUCGAUGGCGCCGGCUGUGCAACAUUCCGAGGGGACCGUCCCCUCGGUAAUGGCGAAUGGGACCCA [C26A G39U] as the variant, how does the self-cleavage read?
Answer: The self-cleavage was 0.935.

Question: Which self-cleavage does the source give for GGCCGGCAUGGUCCCAGCCUCCUCGCUGGCGCCGGUUGGGCAACAUUCCGAGAGGACCGUCCCCUCGGUAAUGGCGAAUGGGACCCA [C36U G53A] here?
Answer: Its self-cleavage is 0.641.

Question: Which self-cleavage does the source give for GGCCGGCAUGGUCCCAGCCUCCUCGCUGGCGCUGGAUGGGCAACAUUCCGAGGGGACCGUCCCCUCGGUAAUGGCGAAUGGGACCCA [C33U C36A] here?
Answer: Its self-cleavage is 0.151.

Question: For GGCCGGCAUGGUCCCAGCCUCCUCGCUGGCGCCGGCUGGGCAACAUUCCGAGGGGACCGUGCCCUCGGUAAUGCCGAAUGGGACCCA [C61G G74C], which self-cleavage is on record?
Answer: The self-cleavage was 0.225.

Question: With GGCCGGCAUGGUCCCAUCCUCCUCGCUGGCGCCGGCUGGGCAACAUUCAGAGGGGACCGUCCCCUCGGUAAUGGCGAAUGGGACCCA [G17U C49A] as the variant, how does the self-cleavage read?
Answer: The self-cleavage was 0.614.

Question: With GGCCGGCAUGGUCCCAGCCUCCUCGCUGGUGCCGGCUGGGCAACAUUCCGAGGGGAACGUCCCCUCGGUAAUGGCGAAUGGGACCCA [C30U C57A] as the variant, how does the self-cleavage read?
Answer: Its self-cleavage is 0.787.

Question: With GGCCGGCCUAGUCCCAGCCUCCUCGCUGGCGCCGGCUGGGCAACAUUCCGAGGGGACCGUCCCCUCGGUAAUGGCGAAUGGGACCCA [A8C G10A] as the variant, how does the self-cleavage read?
Answer: Its self-cleavage is 0.95.

Question: Which self-cleavage does the source give for GGCCGGCAUGGUCACAGCCUCCUCGCUGGCGCCGGCUGGGCAACGUUCCGAGGGGACCGUCCCCUCGGUAAUGGCGAAUGGGACCCA [C14A A45G] here?
Answer: The self-cleavage was 0.703.

Question: For GGCCGGCAUGGUCCCAGCCUCCUCGCUGGCGCCGGCUGGGCAACAUUCCGAGGGGACCGUCCCUUCGGUAAUGGCGUAUGGGACCCA [C64U A77U], which self-cleavage is on record?
Answer: The self-cleavage was 0.674.

Question: For UGCCGGCAUGGUGCCAGCCUCCUCGCUGGCGCCGGCUGGGCAACAUUCCGAGGGGACCGUCCCCUCGGUAAUGGCGAAUGGGACCCA [G1U C13G], which self-cleavage is on record?
Answer: The self-cleavage was 0.369.

Question: With GGCCGGCAUCGUCCCAGCCUCCUCGCUGGCGCCGGCUGGGCAACAUUCCGAGGGGACCGUCCCCUCGGUAAUGGCGAAUGGGAACCA [G10C C84A] as the variant, how does the self-cleavage read?
Answer: Its self-cleavage is 0.705.

Question: For GGCCGGCAAGGUCCCAGCCUCCUCGCUGGCGCCGGCUGGGCAACAUUCCGAGGGGACCGUCCACUCGGUAAUGGCGAAUGGGACCCA [U9A C63A], which self-cleavage is on record?
Answer: The self-cleavage was 1.25.

Question: With GGCCGGCAUGGUCCCAGCCUCCUCGCUGGCGCUGGCUGGGCAACAUUCCGAGGGGACCGUCCCCUCAGUAAUGGCGAAUGGGACCCA [C33U G67A] as the variant, how does the self-cleavage read?
Answer: Its self-cleavage is 0.749.

Question: With GGCCGGCAUGGUCCCAGCCUCCACGCUGGCGCCGGCUGGGCAACAUUCCGAGGGGACCUUCCCCUCGGUAAUGGCGAAUGGGACCCA [U23A G59U] as the variant, how does the self-cleavage read?
Answer: Its self-cleavage is 1.09.

Question: Which self-cleavage does the source give for GGCCGGCAUGGUCCCAGCCUCCUCGCUGGCGCCGGCUGGGCAACAUUCCGAGGGGACCGUCCCUUCCGUAAUGGCGAAUGGGACCCA [C64U G67C] here?
Answer: Its self-cleavage is 0.906.

Question: With GGCCGGCAUGGUCCCAGCCUCCUCGCUGGCGCCGGCUGGGCAACAUUCCGAGGGGACCGUCCCCUAGGUAAUGGCGAAUCGGACCCA [C66A G80C] as the variant, how does the self-cleavage read?
Answer: Its self-cleavage is 0.0845.

Question: Which self-cleavage does the source give for GGGCGGCAUGUUCCCAGCCUCCUCGCUGGCGCCGGCUGGGCAACAUUCCGAGGGGACCGUCCCCUCGGUAAUGGCGAAUGGGACCCA [C3G G11U] here?
Answer: The self-cleavage was 0.0683.

Question: For GGCCGGCAUGGUCCCAGCCUCCUCGCUGGCGCCGGCUGGGCAACAUUCCGAGGGGACCGUCCCGUCGGUAAUUGCGAAUGGGACCCA [C64G G73U], which self-cleavage is on record?
Answer: The self-cleavage was 0.172.

Question: With GGCCGGCAUGGUCCCAGCCUCCGCGCUGGCGCCGGCUGGGCAACAUUCCGAGGGGACCGUCCCCUCGGUCAUGGCGAAUGGGACCCA [U23G A70C] as the variant, how does the self-cleavage read?
Answer: Its self-cleavage is 0.571.

Question: Which self-cleavage does the source give for GGCCGGCAUGGUCCCAGCCUCCUCGCGGGCGCCGGCUGGGCAACAUUCCGAGGGGACCGUACCCUCGGUAAUGGCGAAUGGGACCCA [U27G C61A] here?
Answer: The self-cleavage was 0.759.

Question: Which self-cleavage does the source give for GGCCUGCAUGGUCCCAGCCUCCUCGAUGGCGCCGGCUGGGCAACAUUCCGAGGGGACCGUCCCCUCGGUAAUGGCGAAUGGGACCCA [G5U C26A] here?
Answer: Its self-cleavage is 0.697.

Question: Which self-cleavage does the source give for GGCCGGCAUGGUCCCAGCCUCCUCGCUGGCGCCGGCUGGGCAACAUUCCGAGGGGACCGCCCCCUCGGUAAUGGCGCAUGGGACCCA [U60C A77C] here?
Answer: The self-cleavage was 0.575.

Question: Which self-cleavage does the source give for GGCCGGCAUGGUCCCAGCCUCCUCGCUGGCGCUGGCUGGGCAACAUUCCGAGGGGACCGUCCCCUCGGUAAUGGCGAAUGUGACCCA [C33U G81U] here?
Answer: Its self-cleavage is 0.177.

Question: For GGCCGGCAUGGUCCCAGCCUCCUCGCUGGCGCCGGCUGGGCAACAAUCCGAGGGGACUGUCCCCUCGGUAAUGGCGAAUGGGACCCA [U46A C58U], which self-cleavage is on record?
Answer: Its self-cleavage is 0.482.

Question: With GGCCGGCAUGGUCCCAGCCUCCUCGCUGGCGCCGGCUGGGCAACAUUCCGAGGUGACCGUCACCUCGGUAAUGGCGAAUGGGACCCA [G54U C62A] as the variant, how does the self-cleavage read?
Answer: Its self-cleavage is 0.99.

Question: For GGCCGGCAUGGUCCCAGCCUCCUCGCUUGCGCCGGCUGGGCAACAUUCCGAGGGGACCGGCCCCUCGGUAAUGGCGAAUGGGACCCA [G28U U60G], which self-cleavage is on record?
Answer: The self-cleavage was 0.123.

Question: With GGCCGGGAUGGUCCCAGCCUCCUCCCUGGCGCCGGCUGGGCAACAUUCCGAGGGGACCGUCCCCUCGGUAAUGGCGAAUGGGACCCA [C7G G25C] as the variant, how does the self-cleavage read?
Answer: Its self-cleavage is 0.

Question: Which self-cleavage does the source give for GGCCGGCAUGGUCCCAGCCUCCUCGCUGGCGCCGGCUGGGCAACAUUCCGGGGGGACCGUCCCCCCGGUAAUGGCGAAUGGGACCCA [A51G U65C] here?
Answer: The self-cleavage was 1.26.

Question: With GGCCGGCAUGGUCCCAGCCUCCUCGCUGGCGCCGGCUGGGCAGCAUUGCGAGGGGACCGUCCCCUCGGUAAUGGCGAAUGGGACCCA [A43G C48G] as the variant, how does the self-cleavage read?
Answer: Its self-cleavage is 0.719.

Question: Which self-cleavage does the source give for GGCCGGCAUGGUCCCAGCCUCCUCGCUGGCGCCGGCUGCGCAACAUUCCGAGGGGACCGUCCCCUCGGUAAUGGCGAAAGGGACCCA [G39C U79A] here?
Answer: The self-cleavage was 0.

Question: Which self-cleavage does the source give for GCCCGGCAUGGUCCCAGCCUCCUCGCUGGCGCCGGCUGGGCAACAUUCCGAGGGGACCGACCCCUCGGUAAUGGCGAAUGGGACCCA [G2C U60A] here?
Answer: The self-cleavage was 0.0779.
